Measured values from PMC11630572.

Assays:
[1] = biological target: recombinant spike ectodomain of SARS-CoV-2 Omicron subvariant BA.5 (SARS-CoV-2); assay: cryo-EM structure; complexes of BA.5 or JN.1 spike ectodomain with Nanosota-9-His (0.8 uM); three Nanosota-9 on each trimeric spike, two of them crosslinking two RBDs (2:2 mode)
[2] = biological target: recombinant spike ectodomain of SARS-CoV-2 Omicron subvariant JN.1 (SARS-CoV-2); assay: as above

Substance	stoichiometry N [1]	stoichiometry N [2]
recombinant spike ectodomain of SARS-CoV-2 Omicron subvariant BA.5 (domain or fragment)	3	
recombinant spike ectodomain of SARS-CoV-2 Omicron subvariant JN.1 (domain or fragment)		3
